Laboratory results published in article PMC7822592, “The half-life of the bone-derived hormone osteocalcin is regulated through O-glycosylation in mice, but not in humans” (eLife, 2020).
No end group written: not given here.

Key:
[1] = target: T1, human plasmin (Homo sapiens, UniProt P00747); experiment: Plasmin enzymatic assay on OCN in heat-inactivated plasma; assay type: in vitro ADME; details: for % OCN from initial: heat-inactivated Bglap-/- plasma diluted two times in 100 mM Tris pH 7.5, 50 ng/ml, ELISA; for % OCN from initial / % OCN from initial in plasmin (0.3 U/ml): 2hrs, 37°C; for % OCN from initial in plasmin (0.3 U/ml): inset graph, heat-inactivated Bglap-/- plasma, 50 ng/ml
T1 construct: different concentration of human plasmin (Sigma); purchased Sigma P1867
Method: The plasmin enzymatic assay was performed on plasma ex vivo in the presence of non-glycosylated OCN and glycosylated OCN as follows: plasma from Bglap-/- mice was heat-inactivated for 30 min at 56°C, then diluted two times in the enzyme assay buffer containing 100 mM Tris buffer pH 7.5. Non-glycosylated OCN or glycosylated OCN was incubated at 50 ng/ml in the diluted plasma for two hours in the presence of different concentration of human plasmin (Sigma) ranging from 0 to 0.3 U/ml. After two hours, OCN level was measured using total mouse OCN ELISA. Results are represented as percentage of initial concentration of non-glycosylated and glycosylated OCN respectively.

[2] = In vivo half-life assay, serum OCN after intraperitoneal injection in Bglap-/- mice; parameters: species or system mouse; details: for serum OCN / in vivo half-life / % OCN from initial (relative to maximum at 30 min) / % OCN from initial, mean used for 1/2 life: 40 ng/g i.p.; for serum OCN: ELISA; for in vivo half-life: estimated from declining phase after maximum at 30 min, serum ELISA; for % OCN from initial (relative to maximum at 30 min) / % OCN from initial, mean used for 1/2 life: serum, fasted Bglap-/- mice
Method: For in vivo half-life assay, Bglap-/- male mice were injected intraperitoneally with 40 or 80 ng/g of body weight of mouse O-glycosylated ucOCN or non-glycosylated ucOCN, serum OCN level was analyzed at indicated time points using total mouse OCN ELISA. In all ex vivo and in vivo studies, mouse or human proteins were prepared in saline solution (0.9% NaCl) containing BSA (35 mg/ml) as a carrier.

T1 sequence (P00747 581-810 limits assumed): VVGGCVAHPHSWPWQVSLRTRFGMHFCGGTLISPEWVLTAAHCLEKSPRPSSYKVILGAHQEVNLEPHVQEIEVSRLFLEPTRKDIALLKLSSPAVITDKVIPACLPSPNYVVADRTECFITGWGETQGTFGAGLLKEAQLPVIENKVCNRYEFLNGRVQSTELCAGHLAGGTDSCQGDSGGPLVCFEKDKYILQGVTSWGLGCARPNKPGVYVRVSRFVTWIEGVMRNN
T1 sequence (P00747 97-580 partner limits assumed): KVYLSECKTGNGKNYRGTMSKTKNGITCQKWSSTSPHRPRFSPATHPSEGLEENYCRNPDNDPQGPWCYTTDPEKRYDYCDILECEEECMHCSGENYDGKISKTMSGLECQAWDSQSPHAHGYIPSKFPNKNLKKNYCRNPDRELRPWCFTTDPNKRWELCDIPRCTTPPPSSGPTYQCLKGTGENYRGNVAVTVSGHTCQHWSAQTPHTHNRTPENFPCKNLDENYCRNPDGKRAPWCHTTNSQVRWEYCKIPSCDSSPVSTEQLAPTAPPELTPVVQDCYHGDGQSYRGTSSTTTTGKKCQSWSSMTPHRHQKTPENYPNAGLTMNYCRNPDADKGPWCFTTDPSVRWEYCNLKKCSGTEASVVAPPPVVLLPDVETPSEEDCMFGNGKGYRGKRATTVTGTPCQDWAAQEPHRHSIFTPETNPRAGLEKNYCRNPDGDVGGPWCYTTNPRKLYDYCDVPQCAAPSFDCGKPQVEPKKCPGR

## ucOCN: Non-glycosylated uncarboxylated mouse osteocalcin produced in bacteria (YLGASVPSPDPLEPTREQCELNPACDELSDQYGLKTAYKRIYGITI; ends and bridges not checked; cysteine pairing not given here; UniProt P86546 50-95, looked up)
[1]; plasmin 0 U/ml, replicate 1
  % OCN from initial: 91.2%
[1]; plasmin 0 U/ml, replicate 2
  % OCN from initial: 108.8%
[1]; plasmin 0.024 U/ml, replicate 1
  % OCN from initial: 69.0%
[1]; plasmin 0.024 U/ml, replicate 2
  % OCN from initial: 80.5%
[1]; plasmin 0.12 U/ml, replicate 1
  % OCN from initial: 38.3%
[1]; plasmin 0.12 U/ml, replicate 2
  % OCN from initial: 44.1%
[1]; plasmin 0.3 U/ml, replicate 1
  % OCN from initial: 11.5%
[1]; plasmin 0.3 U/ml, replicate 2
  % OCN from initial: 15.5%
[1]; replicate 1
  % OCN from initial in plasmin (0.3 U/ml): 11.5%
[1]; replicate 2
  % OCN from initial in plasmin (0.3 U/ml): 15.5%
[1]; replicate 3
  % OCN from initial in plasmin (0.3 U/ml): 12.3%
[1]; replicate 4
  % OCN from initial in plasmin (0.3 U/ml): 11.4%
[1]; replicate 5
  % OCN from initial in plasmin (0.3 U/ml): 9.9%
[1]; two hours
  reduction of concentration by plasmin: more than 90%
[2]; Bglap-/- male mice fasted 16 hr, 15 min, mouse 1
  serum OCN: 21.6 ng/mL
[2]; Bglap-/- male mice fasted 16 hr, 15 min, mouse 2
  serum OCN: 16.5 ng/mL
[2]; Bglap-/- male mice fasted 16 hr, 15 min, mouse 3
  serum OCN: 22.3 ng/mL
[2]; Bglap-/- male mice fasted 16 hr, 15 min, mouse 4
  serum OCN: 21.8 ng/mL
[2]; Bglap-/- male mice fasted 16 hr, 30 min, mouse 1
  serum OCN: 29.0 ng/mL
[2]; Bglap-/- male mice fasted 16 hr, 30 min, mouse 2
  serum OCN: 18.8 ng/mL
[2]; Bglap-/- male mice fasted 16 hr, 30 min, mouse 3
  serum OCN: 19.1 ng/mL
[2]; Bglap-/- male mice fasted 16 hr, 30 min, mouse 4
  serum OCN: 16.7 ng/mL
[2]; Bglap-/- male mice fasted 16 hr, 60 min, mouse 1
  serum OCN: 21.9 ng/mL
[2]; Bglap-/- male mice fasted 16 hr, 60 min, mouse 2
  serum OCN: 14.4 ng/mL
[2]; Bglap-/- male mice fasted 16 hr, 60 min, mouse 3
  serum OCN: 15.0 ng/mL
[2]; Bglap-/- male mice fasted 16 hr, 60 min, mouse 4
  serum OCN: 14.8 ng/mL
[2]; Bglap-/- male mice fasted 16 hr, 90 min, mouse 1
  serum OCN: 15.6 ng/mL
[2]; Bglap-/- male mice fasted 16 hr, 90 min, mouse 2
  serum OCN: 12.2 ng/mL
[2]; Bglap-/- male mice fasted 16 hr, 90 min, mouse 3
  serum OCN: 12.9 ng/mL
[2]; Bglap-/- male mice fasted 16 hr, 90 min, mouse 4
  serum OCN: 13.2 ng/mL
[2]; Bglap-/- male mice fasted 16 hr, 120 min, mouse 1
  serum OCN: 11.8 ng/mL
[2]; Bglap-/- male mice fasted 16 hr, 120 min, mouse 2
  serum OCN: 10.3 ng/mL
[2]; Bglap-/- male mice fasted 16 hr, 120 min, mouse 3
  serum OCN: 10.8 ng/mL
[2]; Bglap-/- male mice fasted 16 hr, 120 min, mouse 4
  serum OCN: 12.0 ng/mL
[2]; Bglap-/- male mice fasted 16 hr
  in vivo half-life: 108 min
[2]; Bglap-/- male mice fasted 16 hr, listed as non-glycosylated ucOCN
  in vivo half-life: ~ 108 min
[2]; fed Bglap-/- male mice, 15 min, mouse 1
  serum OCN: 39.8 ng/mL
[2]; fed Bglap-/- male mice, 15 min, mouse 2
  serum OCN: 45.5 ng/mL
[2]; fed Bglap-/- male mice, 15 min, mouse 3
  serum OCN: 45.6 ng/mL
[2]; fed Bglap-/- male mice, 15 min, mouse 4
  serum OCN: 45.1 ng/mL
[2]; fed Bglap-/- male mice, 15 min, mouse 5
  serum OCN: 35.2 ng/mL
[2]; fed Bglap-/- male mice, 15 min, mouse 6
  serum OCN: 29.7 ng/mL
[2]; fed Bglap-/- male mice, 15 min, mouse 7
  serum OCN: 14.2 ng/mL
[2]; fed Bglap-/- male mice, 15 min, mouse 8
  serum OCN: 30.7 ng/mL
[2]; fed Bglap-/- male mice, 15 min, mouse 9
  serum OCN: 21.4 ng/mL
[2]; fed Bglap-/- male mice, 30 min, mouse 1
  serum OCN: 67.5 ng/mL
[2]; fed Bglap-/- male mice, 30 min, mouse 2
  serum OCN: 58.2 ng/mL
[2]; fed Bglap-/- male mice, 30 min, mouse 3
  serum OCN: 51.8 ng/mL
[2]; fed Bglap-/- male mice, 30 min, mouse 4
  serum OCN: 52.9 ng/mL
[2]; fed Bglap-/- male mice, 30 min, mouse 5
  serum OCN: 43.5 ng/mL
[2]; fed Bglap-/- male mice, 30 min, mouse 6
  serum OCN: 27.8 ng/mL
[2]; fed Bglap-/- male mice, 30 min, mouse 7
  serum OCN: 13.8 ng/mL
[2]; fed Bglap-/- male mice, 30 min, mouse 8
  serum OCN: 34.7 ng/mL
[2]; fed Bglap-/- male mice, 30 min, mouse 9
  serum OCN: 14.9 ng/mL
[2]; fed Bglap-/- male mice, 60 min, mouse 1
  serum OCN: 46.1 ng/mL
[2]; fed Bglap-/- male mice, 60 min, mouse 2
  serum OCN: 20.7 ng/mL
[2]; fed Bglap-/- male mice, 60 min, mouse 3
  serum OCN: 25.4 ng/mL
[2]; fed Bglap-/- male mice, 60 min, mouse 4
  serum OCN: 25.6 ng/mL
[2]; fed Bglap-/- male mice, 60 min, mouse 5
  serum OCN: 15.8 ng/mL
[2]; fed Bglap-/- male mice, 60 min, mouse 6
  serum OCN: 8.8 ng/mL
[2]; fed Bglap-/- male mice, 60 min, mouse 7
  serum OCN: 7.2 ng/mL
[2]; fed Bglap-/- male mice, 60 min, mouse 8
  serum OCN: 10.7 ng/mL
[2]; fed Bglap-/- male mice, 60 min, mouse 9
  serum OCN: 5.7 ng/mL
[2]; fed Bglap-/- male mice, 90 min, mouse 1
  serum OCN: 16.3 ng/mL
[2]; fed Bglap-/- male mice, 90 min, mouse 2
  serum OCN: 7.1 ng/mL
[2]; fed Bglap-/- male mice, 90 min, mouse 3
  serum OCN: 9.0 ng/mL
[2]; fed Bglap-/- male mice, 90 min, mouse 4
  serum OCN: 10.0 ng/mL
[2]; fed Bglap-/- male mice, 90 min, mouse 5
  serum OCN: 6.0 ng/mL
[2]; fed Bglap-/- male mice, 90 min, mouse 6
  serum OCN: 4.4 ng/mL
[2]; fed Bglap-/- male mice, 90 min, mouse 7
  serum OCN: 4.7 ng/mL
[2]; fed Bglap-/- male mice, 90 min, mouse 8
  serum OCN: 5.4 ng/mL
[2]; fed Bglap-/- male mice, 90 min, mouse 9
  serum OCN: 4.0 ng/mL
[2]; fed Bglap-/- male mice, 120 min, mouse 1
  serum OCN: 8.1 ng/mL
[2]; fed Bglap-/- male mice, 120 min, mouse 2
  serum OCN: 4.4 ng/mL
[2]; fed Bglap-/- male mice, 120 min, mouse 3
  serum OCN: 5.4 ng/mL
[2]; fed Bglap-/- male mice, 120 min, mouse 4
  serum OCN: 6.0 ng/mL
[2]; fed Bglap-/- male mice, 120 min, mouse 5
  serum OCN: 4.2 ng/mL
[2]; fed Bglap-/- male mice, 120 min, mouse 6
  serum OCN: 3.7 ng/mL
[2]; fed Bglap-/- male mice, 120 min, mouse 7
  serum OCN: 3.8 ng/mL
[2]; fed Bglap-/- male mice, 120 min, mouse 8
  serum OCN: 4.1 ng/mL
[2]; fed Bglap-/- male mice, 120 min, mouse 9
  serum OCN: 3.6 ng/mL
[2]; fed Bglap-/- male mice, 180 min, mouse 1
  serum OCN: 1.9 ng/mL
[2]; fed Bglap-/- male mice, 180 min, mouse 2
  serum OCN: 2.1 ng/mL
[2]; fed Bglap-/- male mice, 180 min, mouse 3
  serum OCN: 1.8 ng/mL
[2]; fed Bglap-/- male mice, 180 min, mouse 4
  serum OCN: 1.6 ng/mL
[2]; fed Bglap-/- male mice, 180 min, mouse 5
  serum OCN: 3.4 ng/mL
[2]; fed Bglap-/- male mice, 180 min, mouse 6
  serum OCN: 3.4 ng/mL
[2]; fed Bglap-/- male mice, 180 min, mouse 7
  serum OCN: 3.4 ng/mL
[2]; fed Bglap-/- male mice, 180 min, mouse 8
  serum OCN: 3.6 ng/mL
[2]; fed Bglap-/- male mice, 180 min, mouse 9
  serum OCN: 3.4 ng/mL
[2]; fed Bglap-/- male mice, dose 40 ng/g i.p., mouse 1
  Serum OCN at 120 minutes: 8.1 ng/mL
[2]; fed Bglap-/- male mice, dose 40 ng/g i.p., mouse 2
  Serum OCN at 120 minutes: 4.4 ng/mL
[2]; fed Bglap-/- male mice, dose 40 ng/g i.p., mouse 3
  Serum OCN at 120 minutes: 5.4 ng/mL
[2]; fed Bglap-/- male mice, dose 40 ng/g i.p., mouse 4
  Serum OCN at 120 minutes: 6 ng/mL
[2]; fed Bglap-/- male mice, dose 80 ng/g i.p., mouse 1
  Serum OCN at 120 minutes: 6.9 ng/mL
[2]; fed Bglap-/- male mice, dose 80 ng/g i.p., mouse 2
  Serum OCN at 120 minutes: 5.7 ng/mL
[2]; fed Bglap-/- male mice, dose 80 ng/g i.p., mouse 3
  Serum OCN at 120 minutes: 13 ng/mL
[2]; 30 min, mouse 1
  % OCN from initial (relative to maximum at 30 min): 100.0%
[2]; 30 min, mouse 2
  % OCN from initial (relative to maximum at 30 min): 100.0%
[2]; 30 min, mouse 3
  % OCN from initial (relative to maximum at 30 min): 100.0%
[2]; 30 min, mouse 4
  % OCN from initial (relative to maximum at 30 min): 100.0%
[2]; 60 min, mouse 1
  % OCN from initial (relative to maximum at 30 min): 75.4%
[2]; 60 min, mouse 2
  % OCN from initial (relative to maximum at 30 min): 76.8%
[2]; 60 min, mouse 3
  % OCN from initial (relative to maximum at 30 min): 78.6%
[2]; 60 min, mouse 4
  % OCN from initial (relative to maximum at 30 min): 88.7%
[2]; 90 min, mouse 1
  % OCN from initial (relative to maximum at 30 min): 53.9%
[2]; 90 min, mouse 2
  % OCN from initial (relative to maximum at 30 min): 65.1%
[2]; 90 min, mouse 3
  % OCN from initial (relative to maximum at 30 min): 67.6%
[2]; 90 min, mouse 4
  % OCN from initial (relative to maximum at 30 min): 78.8%
[2]; 120 min, mouse 1
  % OCN from initial (relative to maximum at 30 min): 40.6%
[2]; 120 min, mouse 2
  % OCN from initial (relative to maximum at 30 min): 54.6%
[2]; 120 min, mouse 3
  % OCN from initial (relative to maximum at 30 min): 56.7%
[2]; 120 min, mouse 4
  % OCN from initial (relative to maximum at 30 min): 71.4%
[2]; time 0 min of declining phase
  % OCN from initial, mean used for 1/2 life: 100.0%
[2]; time 30 min of declining phase
  % OCN from initial, mean used for 1/2 life: 79.9%
[2]; time 60 min of declining phase
  % OCN from initial, mean used for 1/2 life: 66.3%
[2]; time 90 min of declining phase
  % OCN from initial, mean used for 1/2 life: 55.8%
